Data published in IntAct's records for PubMed 29892012.

B1: Transmembrane protein 218 (Homo sapiens), A2RU14 (parent)
chain: MAGTVLGVGAGVFILALLWVAVLLLCVLLSRASGAARFSVIFLFFGAVIITSVLLLFPRAGEFPAPEVEVKIVDDFFIGRYVLLAFLSAIFLGGLFLVLIHYVLEPIYAKPLHSY
partner: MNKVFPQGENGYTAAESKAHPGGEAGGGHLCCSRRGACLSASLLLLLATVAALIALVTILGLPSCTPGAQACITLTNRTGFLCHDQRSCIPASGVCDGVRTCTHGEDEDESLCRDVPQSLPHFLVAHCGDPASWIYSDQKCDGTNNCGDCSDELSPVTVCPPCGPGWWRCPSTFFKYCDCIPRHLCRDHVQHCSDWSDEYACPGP
B2: Syntaxin-3 (Homo sapiens), Q13277 (parent)
chain: MKDRLEQLKAKQLTQDDDTDAVEIAIDNTAFMDEFFSEIEETRLNIDKISEHVEEAKKLYSIILSAPIPEPKTKDDLEQLTTEIKKRANNVRNKLKSMEKHIEEDEVRSSADLRIRKSQHSVLSRKFVEVMTKYNEAQVDFRERSKGRIQRQLEITGKKTTDEELEEMLESGNPAIFTSGIIDSQISKQALSEIEGRHKDIVRLESSIKELHDMFMDIAMLVENQGEMLDNIELNVMHTVDHVEKARDETKKAVKYQSQARKKLIIIIVLVVVLLGILALIIGLSVGLN
partner: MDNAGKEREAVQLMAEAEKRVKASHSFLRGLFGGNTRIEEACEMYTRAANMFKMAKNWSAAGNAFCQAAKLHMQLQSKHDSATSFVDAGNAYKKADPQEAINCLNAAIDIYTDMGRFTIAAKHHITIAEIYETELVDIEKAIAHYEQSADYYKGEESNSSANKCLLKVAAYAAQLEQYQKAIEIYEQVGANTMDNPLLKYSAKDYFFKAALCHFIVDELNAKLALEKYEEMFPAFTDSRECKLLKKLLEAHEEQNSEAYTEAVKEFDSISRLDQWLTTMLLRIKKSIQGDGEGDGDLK
B3: Glutaredoxin-3 (Homo sapiens), O76003 (parent)
chain: MAAGAAEAAVAAVEEVGSAGQFEELLRLKAKSLLVVHFWAPWAPQCAQMNEVMAELAKELPQVSFVKLEAEGVPEVSEKYEISSVPTFLFFKNSQKIDRLDGAHAPELTKKVQRHASSGSFLPSANEHLKEDLNLRLKKLTHAAPCMLFMKGTPQEPRCGFSKQMVEILHKHNIQFSSFDIFSDEEVRQGLKAYSSWPTYPQLYVSGELIGGLDIIKELEASEELDTICPKAPKLEERLKVLTNKASVMLFMKGNKQEAKCGFSKQILEILNSTGVEYETFDILEDEEVRQGLKAYSNWPTYPQLYVKGELVGGLDIVKELKENGELLPILRGEN
partner: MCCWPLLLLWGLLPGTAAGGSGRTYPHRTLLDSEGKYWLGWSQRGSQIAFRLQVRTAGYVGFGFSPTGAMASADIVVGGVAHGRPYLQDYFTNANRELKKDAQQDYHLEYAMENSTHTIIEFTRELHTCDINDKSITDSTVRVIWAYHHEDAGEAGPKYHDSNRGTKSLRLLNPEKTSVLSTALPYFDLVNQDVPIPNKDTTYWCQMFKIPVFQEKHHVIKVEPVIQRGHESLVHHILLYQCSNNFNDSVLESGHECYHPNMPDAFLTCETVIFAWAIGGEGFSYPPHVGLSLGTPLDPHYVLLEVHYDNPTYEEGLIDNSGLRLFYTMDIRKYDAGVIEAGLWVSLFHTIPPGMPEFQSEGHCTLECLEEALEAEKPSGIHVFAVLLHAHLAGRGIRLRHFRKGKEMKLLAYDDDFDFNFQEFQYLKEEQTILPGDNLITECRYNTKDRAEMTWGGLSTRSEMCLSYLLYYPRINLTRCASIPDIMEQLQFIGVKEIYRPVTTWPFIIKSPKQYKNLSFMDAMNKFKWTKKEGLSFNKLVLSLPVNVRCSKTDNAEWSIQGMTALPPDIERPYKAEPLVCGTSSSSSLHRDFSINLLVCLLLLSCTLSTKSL
B4: Protein VAC14 homolog (Homo sapiens), Q08AM6 (parent)
chain: MNPEKDFAPLTPNIVRALNDKLYEKRKVAALEIEKLVREFVAQNNTVQIKHVIQTLSQEFALSQHPHSRKGGLIGLAACSIALGKDSGLYLKELIEPVLTCFNDADSRLRYYACEALYNIVKVARGAVLPHFNVLFDGLSKLAADPDPNVKSGSELLDRLLKDIVTESNKFDLVSFIPLLRERIYSNNQYARQFIISWILVLESVPDINLLDYLPEILDGLFQILGDNGKEIRKMCEVVLGEFLKEIKKNPSSVKFAEMANILVIHCQTTDDLIQLTAMCWMREFIQLAGRVMLPYSSGILTAVLPCLAYDDRKKSIKEVANVCNQSLMKLVTPEDDELDELRPGQRQAEPTPDDALPKQEGTASGGPDGSCDSSFSSGISVFTAASTERAPVTLHLDGIVQVLNCHLSDTAIGMMTRIAVLKWLYHLYIKTPRKMFRHTDSLFPILLQTLSDESDEVILKDLEVLAEIASSPAGQTDDPGPLDGPDLQASHSELQVPTPGRAGLLNTSGTKGLECSPSTPTMNSYFYKFMINLLKRFSSERKLLEVRGPFIIRQLCLLLNAENIFHSMADILLREEDLKFASTMVHALNTILLTSTELFQLRNQLKDLKTLESQNLFCCLYRSWCHNPVTTVSLCFLTQNYRHAYDLIQKFGDLEVTVDFLAEVDKLVQLIECPIFTYLRLQLLDVKNNPYLIKALYGLLMLLPQSSAFQLLSHRLQCVPNPELLQTEDSLKAAPKSQKADSPSIDYAELLQHFEKVQNKHLEVRHQRSGRGDHLDRRVVL
partner: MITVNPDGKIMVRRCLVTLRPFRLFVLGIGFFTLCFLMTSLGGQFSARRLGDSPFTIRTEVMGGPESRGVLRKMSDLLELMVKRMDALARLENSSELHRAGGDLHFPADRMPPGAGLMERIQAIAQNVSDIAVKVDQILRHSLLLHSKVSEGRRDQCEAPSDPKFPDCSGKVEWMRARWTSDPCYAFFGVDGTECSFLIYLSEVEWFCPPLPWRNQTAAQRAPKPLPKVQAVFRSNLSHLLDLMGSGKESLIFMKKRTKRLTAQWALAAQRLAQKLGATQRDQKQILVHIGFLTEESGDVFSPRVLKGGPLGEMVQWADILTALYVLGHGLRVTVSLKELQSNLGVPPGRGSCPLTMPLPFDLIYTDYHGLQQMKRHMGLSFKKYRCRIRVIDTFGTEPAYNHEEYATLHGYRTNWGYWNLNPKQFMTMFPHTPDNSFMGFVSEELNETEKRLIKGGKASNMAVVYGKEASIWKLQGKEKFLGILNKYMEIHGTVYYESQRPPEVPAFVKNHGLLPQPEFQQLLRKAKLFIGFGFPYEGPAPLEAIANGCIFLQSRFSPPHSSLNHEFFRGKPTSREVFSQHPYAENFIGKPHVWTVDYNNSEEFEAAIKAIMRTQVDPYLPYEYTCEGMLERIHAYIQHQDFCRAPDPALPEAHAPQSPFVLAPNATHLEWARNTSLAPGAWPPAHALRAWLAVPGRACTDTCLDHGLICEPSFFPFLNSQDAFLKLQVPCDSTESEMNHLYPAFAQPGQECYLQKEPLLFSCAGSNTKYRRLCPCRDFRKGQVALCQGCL
B5: Genetic suppressor element 1 (Homo sapiens), Q14687 (parent)
chain: MKGMSHEPKSPSLGMLSTATRTTATVNPLTPSPLNGALVPSGSPATSSALSAQAAPSSSFAAALRKLAKQAEEPRGSSLSSESSPVSSPATNHSSPASTPKRVPMGPIIVPPGGHSVPSTPPVVTIAPTKTVNGVWRSESRQDAGSRSSSGGRERLIVEPPLPQEKAGGPAIPSHLLSTPYPFGLSPSSVVQDSRFPPLNLQRPVHHVVPPSTVTEDYLRSFRPYHTTDDLRMSSLPPLGLDPATAAAYYHPSYLAPHPFPHPAFRMDDSYCLSALRSPFYPIPTPGSLPPLHPSAMHLHLSGVRYPPELSHSSLAALHSERMSGLSAERLQMDEELRREREREREREREREADREREKEREREREKEREQEKEREREKERERELERQREQRAREKELLAAKALEPSFLPVAELHGLRGHATEERGKPSEQLTPTRAEKLKDAGLQAPKPVQHPLHPVPTPHHTVPSLISNHGIFSLPSSSAATALLIQRTNEEEKWLARQRRLRQEKEDRQSQVSEFRQQVLEQHLDMGRPPVPAEAEHRPESTTRPGPNRHEPGGRDPPQHFGGPPPLISPKPQLHAAPTALWNPVSLMDNTLETRRAESHSLHSHPAAFEPSRQAAVPLVKVERVFCPEKAEEGPRKREPAPLDKYQPPPPPPREGGSLEHQPFLPGPGPFLAELEKSTQTILGQQRASLPQAATFGELSGPLKPGSPYRPPVPRAPDPAYIYDEFLQQRRRLVSKLDLEERRRREAQEKGYYYDLDDSYDESDEEEVRAHLRCVAEQPPLKLDTSSEKLEFLQLFGLTTQQQKEELVAQKRRKRRRMLRERSPSPPTIQSKRQTPSPRLALSTRYSPDEMNNSPNFEEKKKFLTIFNLTHISAEKRKDKERLVEMLRAMKQKALSAAVADSLTNSPRDSPAVSLSEPATQQASLDVEKPVGVAASLSDIPKAAEPGKLEQVRPQELSRVQELAPASGEKARLSEAPGGKKSLSMLHYIRGAAPKDIPVPLSHSTNGKSKPWEPFVAEEFAHQFHESVLQSTQKALQKHKGSVAVLSAEQNHKVDTSVHYNIPELQSSSRAPPPQHNGQQEPPTARKGPPTQELDRDSEEEEEEDDEDGEDEEEVPKRKWQGIEAVFEAYQEHIEEQNLERQVLQTQCRRLEARHYSLSLTAEQLSHSVAELRSQKQKMVSERERLQAELDHLRKCLALPAMHWPRGYLKGYPR
partner: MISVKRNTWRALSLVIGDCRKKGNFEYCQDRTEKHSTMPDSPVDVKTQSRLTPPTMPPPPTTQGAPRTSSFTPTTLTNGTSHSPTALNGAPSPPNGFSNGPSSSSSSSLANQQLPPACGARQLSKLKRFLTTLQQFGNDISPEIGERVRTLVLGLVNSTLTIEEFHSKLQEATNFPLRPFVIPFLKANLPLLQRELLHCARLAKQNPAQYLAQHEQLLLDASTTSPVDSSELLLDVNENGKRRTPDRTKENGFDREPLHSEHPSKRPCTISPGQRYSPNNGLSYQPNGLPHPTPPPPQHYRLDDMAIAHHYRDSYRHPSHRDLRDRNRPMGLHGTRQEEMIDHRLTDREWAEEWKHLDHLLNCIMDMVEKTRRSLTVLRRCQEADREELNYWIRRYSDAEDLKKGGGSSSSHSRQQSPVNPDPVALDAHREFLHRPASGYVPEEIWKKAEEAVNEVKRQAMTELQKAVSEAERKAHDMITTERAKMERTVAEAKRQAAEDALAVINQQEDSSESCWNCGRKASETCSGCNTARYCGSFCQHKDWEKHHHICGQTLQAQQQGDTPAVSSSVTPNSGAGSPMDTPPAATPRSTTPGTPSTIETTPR

Variants of: B1
Conditions: with lrad1_human LDLRAD1, Q5T700

Variant | effect of a mutation on the interaction
P66S | with no effect

Variants of: B2
Conditions: with snab_human NAPB

Variant | effect of a mutation on the interaction
K199E | disrupting interaction strength

Variants of: B3
Conditions: with moxd1_human MOXD1, Q6UVY6

Variant | effect of a mutation on the interaction
P145A | with no effect

Variants of: B4
Conditions: with mgt5b_human MGAT5B

Variant | effect of a mutation on the interaction
A127S | with no effect

Variants of: B5
Conditions: with mtg8_human RUNX1T1, Q06455

Variant | effect of a mutation on the interaction
R503Q | with no effect

Variants of: B5
Conditions: with mtg8_human RUNX1T1, Q06455
Remark: another data set of the same source

Variant | effect of a mutation on the interaction
E368K | with no effect
